Data: US20220306683A1, “PROXIMITY-BASED LABELING SYSTEMS AND APPLICATIONS THEREOF” (The Trustees of Princeton University, priority 2019, published 2022)
Ends that are not written are not given here.

Target: E3 ligase MDM2 (Homo sapiens, UniProt Q00987)
Experiment: Peptide-photocatalyst conjugate labeling of MDM2 versus BSA
Settings: peptide conjugated to photocatalyst through azido-lysine

Sequence of E3 ligase MDM2 (Q00987 whole entry): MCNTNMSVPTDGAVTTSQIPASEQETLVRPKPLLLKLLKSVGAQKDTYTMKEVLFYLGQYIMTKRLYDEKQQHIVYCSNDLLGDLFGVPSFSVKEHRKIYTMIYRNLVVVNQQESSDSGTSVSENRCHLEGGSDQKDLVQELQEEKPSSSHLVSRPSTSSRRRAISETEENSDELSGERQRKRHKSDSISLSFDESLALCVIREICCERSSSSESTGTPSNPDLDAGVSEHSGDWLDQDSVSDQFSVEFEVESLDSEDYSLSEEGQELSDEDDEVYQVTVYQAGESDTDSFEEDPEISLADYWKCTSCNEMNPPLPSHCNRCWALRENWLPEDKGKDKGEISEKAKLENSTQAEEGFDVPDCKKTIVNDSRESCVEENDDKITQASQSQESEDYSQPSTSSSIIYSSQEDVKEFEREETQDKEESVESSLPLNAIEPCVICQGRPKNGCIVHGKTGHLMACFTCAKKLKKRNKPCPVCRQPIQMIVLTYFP

- enrichment of target protein MDM2 compared to free photocatalyst control: 3 fold
Substance: ATSP7041: α-helical stapled cyclic peptide targeting MDM2, conjugated to the photocatalyst through a modified azido-lysine (KLTFAEYWAQAASAA; staple (positions not given here); also: stapled, places not given here, photocatalyst conjugated via azido-lysine, place not given here)
